How the values were obtained:
[1] = molecular target: porcine sialoadhesin (pig) (UniProt A7LCJ3); test: cell-based or functional assay
[2] = molecular target: recombinant sialoadhesin expressed on CHO cells (CHO-Sn); test: cell-based or functional assay

mAb 41D3/saporin conjugate
% Living cells, primary porcine macrophages, conjugate concentration 0.3*10^-6 [1]: 30.4% | % Living cells, primary porcine macrophages, conjugate concentration 10^-7 [1]: 29.3% | MTT assay OD value, primary porcine macrophages, column head 10 [1]: 0.537 OD | MTT assay OD value, primary porcine macrophages, column head 30 [1]: 0.541 OD | % Living cells, CHO-Sn cells, conjugate concentration 0.1*10^-6 [2]: 64.4% | % Living cells, CHO-Sn cells, conjugate concentration 0.25*10^-6 [2]: 57.1% | % Living cells, CHO-Sn cells, conjugate concentration 0.5*10^-6 [2]: 64.2% | % Living cells, CHO-Sn cells, conjugate concentration 10^-7 [2]: 63% | MTT assay OD value, CHO-Sn cells, 25 [2]: 1.35 OD | MTT assay OD value, CHO-Sn cells, column head 6.25 [2]: 1.45 OD | MTT assay OD value, CHO-Sn cells, column head 12.5 [2]: 1.47 OD | MTT assay OD value, CHO-Sn cells, column head 50 [2]: 1.47 OD
